B1: HIP1/deltaE: dominant negative mutant of HIP1 lacking the ENTH domain (SEQ ID NO: 4) (protein, listed as Homo sapiens)
chain: MFDYLECELNLFQTVFNSLDMSRSVSVTAAGQCRLAPLIQVILDCSHLYDYTVKLLFKLHSCLPADTLQGHRDRFMEQFTKLKDLFYRSSNLQYFKRLIQIPQLPENPPNFLRASALSEHISPVVVIPAEASSPDSEPVLEKDDLMDMDASQQNLFDNKFDDIFGSSFSSDPFNFNSQNGVNKDEKDHLIERLYREISGLKAQLENMKTESQRVVLQLKGHVSELEADLAEQQHLRQQAADDCEFLRAELDELRRQREDTEKAQRSLSEIERKAQANEQRYSKLKEKYSELVQNHADLLRKNAEVTKQVSMARQAQVDLEREKKELEDSLERISDQGQRKTQEQLEVLESLKQELATSQRELQVLQGSLETSAQSEANWAAEFAELEKERDSLVSGAAHREEELSALRKELQDTQLKLASTEESMCQLAKDQRKMLLVGSRKAAEQVIQDALNQLEEPPLISCAGSADHLLSTVTSISSCIEQLEKSWSQYLACPEDISGLLHSITLLAHLTSDAIAHGATTCLRAPPEPADSLTEACKQYGRETLAYLASLEEEGSLENADSTAMRNCLSKIKAIGEELLPRGLDIKQEELGDLVDKEMAATSAAIETATARIEEMLSKSRAGDTGVKLEVNERILGCCTSLMQAIQVLIVASKDLQREIVESGRGTASPKEFYAKNSRWTEGLISASKAVGWGATVMVDAADLVVQGRGKFEELMVCSHEIAASTAQLVAASKVKADKDSPNLAQLQQASRGVNQATAGVVASTISGKSQIEETDNMDFSSMTLTQIKRQEMDSQVRVLELENELQKERQKLGELRKKHYELAGVAEGWEEGTEASPPTLQEVVTEKESQTNTPYVSVNPCYLSRVCYFPSHRPNPWSPRGSHTTAITQCRGHAHFQRLPPRHPFCLDPWISTASYGGWLGFLVLFFFFKFHSHSQLSQRAHPWGVSRAPQLWLQRWCCPGLSVLHLRLHTDQVLAHPVHAPGSGGAAEQLSSKSRRRVSAFPSSIPAESLCPPLQGRRQQKEGQEGSHSPVPVTRLKNLITCLNGAGEINNTTSLPETVREWSLSSGPSPLAQRRSVGVIPNSFLQTSALASSIGRSFHLLRNQTRKIRCNCSHQGRTLYLVCYPYLLLTSLKQQQPTKRCLEQSELQVLQSSSFCPATSAFKNQKKGQGAGLLLTWIPKQGDHLELLGQRKERTEPAAPTPFSHMPQALAALWTGGQRAHEQLARDGQPNSTFPLLDGPQHLSDLLILGKQRLPSLSIATHWWPSSTSEFLQPGRPLEH
B2: FLHIP1: wild type full length HIP1 expressed in cells (protein)
chain: MDRMASSMKQVPNPLPKVLSRRGVGAGLEAAERESFERTQTVSINKAINTQEVAVKEKHARTCILGTHHEKGAQTFWSVVNRLPLSSNAVLCWKFCHVFHKLLRDGHPNVLKDSLRYRNELSDMSRMWGYLSEGYGQLCSIYLKLLRTKMEYHTKNPRFPGNLQMSDRQLDEAGESDVNNFSQLTVEMFDYLECELNLFQTVFNSLDMSRSVSVTAAGQCRLAPLIQVILDCSHLYDYTVKLLFKLHSCLPADTLQGHRDRFMEQFTKLKDLFYRSSNLQYFKRLIQIPQLPENPPNFLRASALSEHISPVVVIPAEASSPDSEPVLEKDDLMDMDASQQNLFDNKFDDIFGSSFSSDPFNFNSQNGVNKDEKDHLIERLYREISGLKAQLENMKTESQRVVLQLKGHVSELEADLAEQQHLRQQAADDCEFLRAELDELRRQREDTEKAQRSLSEIERKAQANEQRYSKLKEKYSELVQNHADLLRKNAEVTKQVSMARQAQVDLEREKKELEDSLERISDQGQRKTQEQLEVLESLKQELATSQRELQVLQGSLETSAQSEANWAAEFAELEKERDSLVSGAAHREEELSALRKELQDTQLKLASTEESMCQLAKDQRKMLLVGSRKAAEQVIQDALNQLEEPPLISCAGSADHLLSTVTSISSCIEQLEKSWSQYLACPEDISGLLHSITLLAHLTSDAIAHGATTCLRAPPEPADSLTEACKQYGRETLAYLASLEEEGSLENADSTAMRNCLSKIKAIGEELLPRGLDIKQEELGDLVDKEMAATSAAIETATARIEEMLSKSRAGDTGVKLEVNERILGCCTSLMQAIQVLIVASKDLQREIVESGRGTASPKEFYAKNSRWTEGLISASKAVGWGATVMVDAADLVVQGRGKFEELMVCSHEIAASTAQLVAASKVKADKDSPNLAQLQQASRGVNQATAGVVASTISGKSQIEETDNMDFSSMTLTQIKRQEMDSQVRVLELENELQKERQKLGELRKKHYELAGVAEGWEEGTEASPPTLQEVVTEKESQTNTPYVSVNPCYLSRVCYFPSHRPNPWSPRGSHTTAITQCRGHAHFQRLPPRHPFCLDPWISTASYGGWLGFLVLFFFFKFHSHSQLSQRAHPWGVSRAPQLWLQRWCCPGLSVLHLRLHTDQVLAHPVHAPGSGGAAEQLSSKSRRRVSAFPSSIPAESLCPPLQGRRQQKEGQEGSHSPVPVTRLKNLITCLNGAGEINNTTSLPETVREWSLSSGPSPLAQRRSVGVIPNSFLQTSALASSIGRSFHLLRNQTRKIRCNCSHQGRTLYLVCYPYLLLTSLKQQQPTKRCLEQSELQVLQSSSFCPATSAFKNQKKGQGAGLLLTWIPKQGDHLELLGQRKERTEPAAPTPFSHMPQALAALWTGGQRAHEQLARDGQPNSTFPLLDGPQHLSDLLILGKQRLPSLSIATHWWPSSTSEFLQPGRPLEHAXEGP
modifications: X: residue not identified in the source
notes: wild type full length HIP1 expressed in cells

Tested on: cellular survival
Assay: Effect of expression of HIP1 dominant negative mutant on cellular survival
Type: cell-based
Conditions: for induction of cell death: expression of construct
Description: The effect of expression of a HIP1 dominant negative mutant on cellular survival was next investigated. […] 39% of HIP1/DE-expressing cells and 50% of caspase 9-expressing cells were apoptotic. […] Expression of the endogenous HIP1, wild type HIP1, HIP1/DE and Caspase 9 was documented by Western blot analysis as shown in the bottom of FIG. 6b.

Row | Molecule | apoptotic cells (cells expressing the construct, FIG. 6b) [%] | induction of cell death (FIG. 6b) | correction of HIP1 deltaE apoptosis (co-expression with HIP1 deltaE, FIG. 12 and 13)
1 | B1 | 39 | promoted cell death | 
2 | B2 |  | did not induce cell death | correction of HIP1 deltaE apoptosis
